Consider 6 substances from IntAct's records for PubMed 19942855.

The target of experiment [1] is spp_human HM13 (UniProt Q8TCT9).
Experiment [2] shares this target. This is another data set of the same source.

Sequence of spp_human HM13 (Q8TCT9 whole entry): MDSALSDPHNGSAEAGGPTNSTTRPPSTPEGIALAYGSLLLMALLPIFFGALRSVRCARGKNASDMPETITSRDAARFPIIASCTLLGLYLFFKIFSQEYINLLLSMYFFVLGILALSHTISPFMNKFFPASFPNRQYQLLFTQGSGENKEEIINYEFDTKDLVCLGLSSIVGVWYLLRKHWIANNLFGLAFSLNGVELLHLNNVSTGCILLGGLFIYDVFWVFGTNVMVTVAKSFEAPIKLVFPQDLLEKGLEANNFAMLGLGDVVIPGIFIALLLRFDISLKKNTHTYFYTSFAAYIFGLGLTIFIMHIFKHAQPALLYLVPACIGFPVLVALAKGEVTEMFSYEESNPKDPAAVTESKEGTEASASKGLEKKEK
Sequence of Protein disulfide-isomerase (Homo sapiens), P07237 C53S (P07237 whole entry C53S): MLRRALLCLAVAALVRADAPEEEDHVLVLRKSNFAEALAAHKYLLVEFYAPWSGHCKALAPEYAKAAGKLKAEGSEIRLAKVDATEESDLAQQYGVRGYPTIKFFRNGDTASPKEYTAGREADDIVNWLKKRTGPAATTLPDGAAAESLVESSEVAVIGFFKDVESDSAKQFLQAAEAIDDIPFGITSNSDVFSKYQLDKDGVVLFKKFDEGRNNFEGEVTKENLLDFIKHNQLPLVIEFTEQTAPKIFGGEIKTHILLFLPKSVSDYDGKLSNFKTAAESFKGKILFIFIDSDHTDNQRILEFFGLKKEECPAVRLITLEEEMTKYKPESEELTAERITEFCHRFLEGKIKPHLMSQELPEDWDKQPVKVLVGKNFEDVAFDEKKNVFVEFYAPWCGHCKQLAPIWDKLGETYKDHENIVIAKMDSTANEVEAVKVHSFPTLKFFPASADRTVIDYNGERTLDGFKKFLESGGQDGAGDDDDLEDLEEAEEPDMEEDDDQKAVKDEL
Sequence of Protein disulfide-isomerase (Homo sapiens), P07237 C397S (P07237 whole entry C397S): as the sequence (P07237 whole entry C53S) above, with S53C, C397S counted along it
Sequence of Protein disulfide-isomerase (Homo sapiens), P07237 C56S (P07237 whole entry C56S): as the sequence (P07237 whole entry C53S) above, with S53C, C56S counted along it
Sequence of Protein disulfide-isomerase (Homo sapiens), P07237 I289A (P07237 whole entry I289A): as the sequence (P07237 whole entry C53S) above, with S53C, I289A counted along it
Sequence of Protein disulfide-isomerase (Homo sapiens), P07237 C400S (P07237 whole entry C400S): as the sequence (P07237 whole entry C53S) above, with S53C, C400S counted along it
Sequence of Protein disulfide-isomerase (Homo sapiens), P07237 F275W (P07237 whole entry F275W): as the sequence (P07237 whole entry C53S) above, with S53C, F275W counted along it

As for “Protein disulfide-isomerase (Homo sapiens), P07237 C53S”, the “effect of a mutation on the interaction” value in the experiment with spp_human HM13 [1] is reported as “decreasing interaction”. The same measure, in the same setting: as for “Protein disulfide-isomerase (Homo sapiens), P07237 C56S”, the entry is “decreasing interaction”. Still for that read-out and setting: with “Protein disulfide-isomerase (Homo sapiens), P07237 C397S” the entry was “decreasing interaction”. The same measure, in the same setting: as for “Protein disulfide-isomerase (Homo sapiens), P07237 C400S”, the entry is “decreasing interaction”.

Take “Protein disulfide-isomerase (Homo sapiens), P07237 F275W”: the “effect of a mutation on the interaction” value in the experiment with spp_human HM13 [2] is listed as “increasing interaction”. Still for that read-out and setting: with “Protein disulfide-isomerase (Homo sapiens), P07237 I289A” the entry was “increasing interaction”.
